# Results published in patent publication US20240409614.
# B1: MMP-9 (ProSpec, cat #enz-438) (protein)
# chain: APRQRQSTLVLFPGDLRTNLTDRQLAEEYLYRYGYTRVAEMRGESKSLGPALLLLQKQLSLPETGELDSATLKAMRTPRCGVPDLGRFQTFEGDLKWHHHNITYWIQNYSEDLPRAVIDDAFARAFALWSAVTPLTFTRVYSRDADIVIQFGVAEHGDGYPFDGKDGLLAHAFPPGPGIQGDAHFDDDELWSLGKGVVVPTRFGNADGAACHFPFIFEGRSYSACTTDGRSDGLPWCSTTANYDTDDRFGFCPSERLYTQDGNADGKPCQFPFIFQGQSYSACTTDGRSDGYRWCATTANYDRDKLFGFCPTRADSTVMGGNSAGELCVFPFTFLGKEYSTCTSEGRGDGRLWCATTSNFDSDKKWGFCPDQGYSLFLVAAHEFGHALGLDHSSVPEALMYPMYRFTEGPPLHKDDVNGIRHLYGPRPEPEPRPPTTTTPQPTAPPTVCPTGPPTVHPSERPTAGPTGPPSAGPTGPPTAGPSTATTVPLSPVDDACNVNIFDAIAEIGNQLYLFKDGKYWRFSEGRGSRPQGPFLIADKWPALPRKLDSVFEERLSKKLFFFSGRQVWVYTGASVLGPRRLDKLGLGADVAQVTGALRSGRGKMLLFSGRRLWRFDVKAQMVDPRSASEVDRMFPGVPLDTHDVFQYREKAYFCQDRFYWRVSSRSELNQVDQVGYVTYDILQCPED
# B2: MMP-7 (ProSpec, cat #enz-271) (protein)
# chain: YSLFPNSPKWTSKVVTYRIVSYTRDLPHITVDRLVSKALNMWGKEIPLHFRKVVWGTADIMIGFARGAHGDSYPFDGPGNTLAHAFAPGTGLGGDAHFDEDERWTDGSSLGINFLYAATHELGHSLGMGHSSDPNAVMYPTYGNGDPQNFKLSQDDIKGIQKLYGKRSNSRKK
# Assays:
# [1] = molecular target: T1, A1AT-M351V/L353T/M358V
# T1 chain: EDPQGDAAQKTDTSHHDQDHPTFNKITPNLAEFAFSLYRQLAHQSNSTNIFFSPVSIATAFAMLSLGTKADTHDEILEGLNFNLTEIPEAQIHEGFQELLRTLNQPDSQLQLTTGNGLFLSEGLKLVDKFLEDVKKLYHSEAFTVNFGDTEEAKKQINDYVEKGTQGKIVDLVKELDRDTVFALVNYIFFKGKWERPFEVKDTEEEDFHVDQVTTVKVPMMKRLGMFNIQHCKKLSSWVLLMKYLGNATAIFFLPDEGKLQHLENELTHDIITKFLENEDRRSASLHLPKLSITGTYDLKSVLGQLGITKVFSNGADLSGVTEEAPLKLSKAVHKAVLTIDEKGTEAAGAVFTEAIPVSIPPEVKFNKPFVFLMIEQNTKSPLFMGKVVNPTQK
# [2] = molecular target: T2, A1AT-M351V/L353A/M358V
# T2 chain: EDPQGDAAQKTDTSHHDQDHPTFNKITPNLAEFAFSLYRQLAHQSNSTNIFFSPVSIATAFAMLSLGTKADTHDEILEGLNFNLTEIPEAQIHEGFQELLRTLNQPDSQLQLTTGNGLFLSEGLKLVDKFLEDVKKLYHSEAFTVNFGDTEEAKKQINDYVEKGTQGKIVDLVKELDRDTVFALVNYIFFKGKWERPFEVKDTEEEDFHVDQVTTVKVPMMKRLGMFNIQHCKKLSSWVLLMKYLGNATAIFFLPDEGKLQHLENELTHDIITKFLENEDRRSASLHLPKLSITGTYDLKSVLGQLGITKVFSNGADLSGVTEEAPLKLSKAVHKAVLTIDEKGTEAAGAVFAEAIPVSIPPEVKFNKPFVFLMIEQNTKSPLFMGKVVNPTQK
# [3] = molecular target: wildtype alpha-1-antitrypsin (A1AT)
# [4] = molecular target: A1AT-M351V/M358V
# [5] = molecular target: T3, A1AT-M351V/L353S/M358V
# T3 chain: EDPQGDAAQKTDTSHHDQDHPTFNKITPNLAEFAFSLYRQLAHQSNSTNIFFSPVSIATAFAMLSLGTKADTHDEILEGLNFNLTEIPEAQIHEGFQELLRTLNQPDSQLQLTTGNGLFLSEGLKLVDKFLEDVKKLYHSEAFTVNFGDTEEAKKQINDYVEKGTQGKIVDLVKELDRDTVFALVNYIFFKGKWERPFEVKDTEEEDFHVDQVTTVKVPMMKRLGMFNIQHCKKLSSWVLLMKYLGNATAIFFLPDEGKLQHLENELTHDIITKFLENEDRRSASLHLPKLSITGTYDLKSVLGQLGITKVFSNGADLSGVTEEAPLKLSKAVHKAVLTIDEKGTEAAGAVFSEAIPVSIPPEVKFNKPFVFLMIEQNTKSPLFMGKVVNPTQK
# [6] = molecular target: A1AT-L353A/M358V
# [7] = molecular target: A1AT-M351V/L353A
# [8] = molecular target: A1AT-L353A
protein,measurement,setting,value
B1,cleaved (%) after MMP-9 treatment (SDS-PAGE),[1],0%
same,non-cleaved (%) after MMP-9 treatment (SDS-PAGE),[1],100%
same,cleaved (%) after MMP-9 treatment (SDS-PAGE),[2],6%
same,non-cleaved (%) after MMP-9 treatment (SDS-PAGE),[2],94%
same,cleaved (%) after MMP-9 treatment (SDS-PAGE),[3],89%
same,non-cleaved (%) after MMP-9 treatment (SDS-PAGE),[3],11%
same,cleaved (%) after MMP-9 treatment (SDS-PAGE),[4],25%
same,non-cleaved (%) after MMP-9 treatment (SDS-PAGE),[4],75%
same,cleaved (%) after MMP-9 treatment (SDS-PAGE),[5],0%
same,non-cleaved (%) after MMP-9 treatment (SDS-PAGE),[5],100%
B2,"proteolytic degradation by MMP-7 (SDS-PAGE, FIG. 4)",[6],A0025 showed as little degradation by MMP-7 as A0028 and A0031
same,cleaved (%) after MMP-7 treatment (SDS-PAGE),[1],5%
same,non-cleaved (%) after MMP-7 treatment (SDS-PAGE),[1],95%
same,cleaved (%) after MMP-7 treatment (SDS-PAGE),[2],0%
same,non-cleaved (%) after MMP-7 treatment (SDS-PAGE),[2],100%
same,cleaved (%) after MMP-7 treatment (SDS-PAGE),[3],96%
same,non-cleaved (%) after MMP-7 treatment (SDS-PAGE),[3],4%
same,cleaved (%) after MMP-7 treatment (SDS-PAGE),[4],63%
same,non-cleaved (%) after MMP-7 treatment (SDS-PAGE),[4],37%
same,"proteolytic degradation by MMP-7 (SDS-PAGE, FIG. 4)",[7],A0025 showed as little degradation by MMP-7 as A0028 and A0031
same,cleaved (%) after MMP-7 treatment (SDS-PAGE),[5],0%
same,non-cleaved (%) after MMP-7 treatment (SDS-PAGE),[5],100%
same,"proteolytic degradation by MMP-7 (SDS-PAGE, FIG. 4)",[8],A0025 showed as little degradation by MMP-7 as A0028 and A0031
